T1: human LAG3 ECD recombinant protein (plate coated, tag not stated) (human, UniProt P18627 23-450)
T1 construct: extracellular domain
T1 sequence (looked up): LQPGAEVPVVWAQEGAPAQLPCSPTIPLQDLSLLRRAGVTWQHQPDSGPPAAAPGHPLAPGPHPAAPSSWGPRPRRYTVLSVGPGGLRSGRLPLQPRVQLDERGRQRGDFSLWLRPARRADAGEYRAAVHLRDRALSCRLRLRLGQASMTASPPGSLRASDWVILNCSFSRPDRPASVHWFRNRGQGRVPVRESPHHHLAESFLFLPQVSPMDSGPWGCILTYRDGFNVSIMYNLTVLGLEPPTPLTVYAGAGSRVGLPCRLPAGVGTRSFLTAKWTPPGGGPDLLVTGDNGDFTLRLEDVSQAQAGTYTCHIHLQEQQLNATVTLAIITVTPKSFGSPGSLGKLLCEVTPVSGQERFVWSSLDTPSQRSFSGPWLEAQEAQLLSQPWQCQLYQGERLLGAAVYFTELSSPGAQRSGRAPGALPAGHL

T2: mFc tagged human LAG3 ECD recombinant protein (human, UniProt P18627 23-450)
T2 construct: extracellular domain; purchased from Biointron; not shown: mouse IgG Fc (mFc) tag
T2 sequence (looked up): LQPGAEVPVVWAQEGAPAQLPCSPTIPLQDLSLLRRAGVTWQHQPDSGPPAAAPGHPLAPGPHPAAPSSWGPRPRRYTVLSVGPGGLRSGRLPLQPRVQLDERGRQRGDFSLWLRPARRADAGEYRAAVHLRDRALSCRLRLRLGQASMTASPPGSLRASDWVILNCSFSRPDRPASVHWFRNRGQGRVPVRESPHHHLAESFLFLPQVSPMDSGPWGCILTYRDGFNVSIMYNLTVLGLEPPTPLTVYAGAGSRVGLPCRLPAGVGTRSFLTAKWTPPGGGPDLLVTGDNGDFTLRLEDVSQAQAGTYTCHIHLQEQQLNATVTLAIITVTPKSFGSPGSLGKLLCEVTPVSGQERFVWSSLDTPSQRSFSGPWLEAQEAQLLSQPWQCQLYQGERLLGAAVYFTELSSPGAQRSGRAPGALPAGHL

T3: human LAG3, full length, stably expressed on cells (human, UniProt P18627 23-525)
T3 construct: whole, on cells; also called CHOK1-human LAG3
T3 sequence (looked up): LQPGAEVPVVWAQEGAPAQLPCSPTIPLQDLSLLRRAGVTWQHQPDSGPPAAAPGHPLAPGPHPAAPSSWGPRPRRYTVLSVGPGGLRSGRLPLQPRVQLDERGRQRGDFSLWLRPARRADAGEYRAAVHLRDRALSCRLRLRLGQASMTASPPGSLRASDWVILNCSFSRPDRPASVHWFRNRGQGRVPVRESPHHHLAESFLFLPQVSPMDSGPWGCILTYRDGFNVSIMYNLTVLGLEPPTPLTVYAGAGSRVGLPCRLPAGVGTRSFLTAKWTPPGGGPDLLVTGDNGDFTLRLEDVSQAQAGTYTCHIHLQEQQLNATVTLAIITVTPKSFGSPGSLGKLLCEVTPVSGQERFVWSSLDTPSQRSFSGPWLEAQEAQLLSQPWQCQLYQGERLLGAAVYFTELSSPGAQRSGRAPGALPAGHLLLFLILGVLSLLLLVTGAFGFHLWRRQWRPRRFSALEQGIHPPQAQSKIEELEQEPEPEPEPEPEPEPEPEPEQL

T4: hFc tagged human LAG3 ECD recombinant protein (human, UniProt P18627 23-450)
T4 construct: range 23-450; also called biotin labelled hFc tagged human LAG3 ECD; not shown: human IgG Fc tag
T4 sequence (looked up): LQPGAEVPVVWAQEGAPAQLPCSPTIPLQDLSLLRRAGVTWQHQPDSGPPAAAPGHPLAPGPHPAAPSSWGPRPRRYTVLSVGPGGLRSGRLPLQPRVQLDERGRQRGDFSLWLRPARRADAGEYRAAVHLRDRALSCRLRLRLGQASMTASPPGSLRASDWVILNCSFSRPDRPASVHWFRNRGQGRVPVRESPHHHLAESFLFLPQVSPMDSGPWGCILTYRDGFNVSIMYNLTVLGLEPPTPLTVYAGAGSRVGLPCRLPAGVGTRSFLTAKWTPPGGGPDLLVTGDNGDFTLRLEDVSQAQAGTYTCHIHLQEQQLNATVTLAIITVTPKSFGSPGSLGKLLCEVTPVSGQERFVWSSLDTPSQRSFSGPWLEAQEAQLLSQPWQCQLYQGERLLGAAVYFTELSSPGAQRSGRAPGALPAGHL

B1: 047c (antibody, human IgG4, V domains shown)
VH: QVQLQQSGAELARPGASVKLSCKASGYSFTSYGVNWVKQRTGQGLEWIGEIYPRSGNTYYNERFGDKATLTADKSSSTAYMEIRSLTSEDSAVYFCARGGTYDGYYYAMDYWGQGTSVTVSS
VL: DIVLTQSPASLAVSLGQRATISCRASESVDNFGSSFMHWYQQKPGQAPKLLIYRASNLESGIPARFSGSGSRTDFTLTINPVETDDVATYYCQQVNKDPRTFGGGTKLEIK
notes: human IgG4 S228P / kappa chimeric antibody; also called chimeric antibody 047; not shown: human kappa light chain constant region (pcDNA3.4-hIgGk vector)
B2: 027c (antibody, human IgG4, V domains shown)
VH: EVKILQSGGGLVQPGGSLKLSCAASGIDFSRYWMSWVRRTPGKGLEWIGEINPDSSTINYAPSLKDKFIISRDNAKNTLYLQMSKVRSEDTALYYCARLGIIPTYHYGSSGYYYAMDYWGQGTSVTVSS
VL: DVLMTQTPLSLPVSLGDRASISCRSSQTIVHGNGHTSLEWYLQKPGQSPQLLIYKVSNRFSGVPDRFSASGSGTDFTLTISRVEAEDLGVYYCFQVSHVPYTFGGGTKLEIK
notes: human IgG4 S228P / kappa chimeric antibody; also called chimeric antibody 027; not shown: human kappa light chain constant region (pcDNA3.4-hIgGk vector)

Experiments:
[1] = target: T1, human LAG3 ECD recombinant protein …; experiment: competitive ELISA format I: His-FGL1 binding to coated LAG3 ECD
Procedure: (§1) After washing, HRP labeled anti-His 2nd antibody (Sigma) was added and incubated at 37° C. for 1 hour. Then, 100 μl/well of TMB solution (Biotechnology) was added. After incubation for 15 minutes at room temperature, the reaction was stopped by the addition of 50 μl of 1N HCl. OD 450 nm was read. […] After washing, HRP labeled anti-SA 2nd antibody (Sigma) was added and incubated at 37° C. for 1 hour. Then, 100 μl/well of TMB solution (Biotechnology) was added. After incubation for 15 minutes at room temperature, the reaction was stopped by the addition of 50 μl of 1N HCl. OD 450 nm was read. […] The competition assay of format III is a competitive FACS assay. […] After washing, dye labeled anti-His 2nd antibody (Sigma) was added and incubated at 37° C. for 1 hour. Fluorescence intensity was detected.

[2] = target: T2, mFc tagged human LAG3 ECD recombinant …; experiment: competitive FACS: mFc-LAG3 ECD binding to Raji cells (MHC II)
Procedure: Activity of the purified chimeric antibodies to block LAG3 and MHC II interaction was determined by competitive FACS assay. […] After washing, dye labeled anti-mouse Fc 2nd antibody (Sigma) was added and incubated at 37° C. for 1 hour. Fluorescence intensity was detected.

[3] = target: T3, human LAG3, full length, stably …; experiment: FACS on 293F cells stably expressing human LAG3
Procedure: Briefly the antibodies were incubated with 2×10⁵ target cells at 4° C. for 1 hour. After washing, fluorescence labeled anti-mouse IgG 2nd antibody (Life Technologies) was added and incubated at 4° C. for 1 hour. Geometric median fluorescence intensity (MFI) was detected and EC₅₀ was calculated using GraphPad Prism9.0.
MFI was detected and EC₅₀ was calculated using GraphPad Prism9.0.

[4] = target: T4, hFc tagged human LAG3 ECD recombinant …; experiment: competitive ELISA format II: biotin hFc-LAG3 ECD binding to coated His-FGL1
Procedure: as §1

Binder	Blocking ratio at 66.7 nM (%) [1]	IC50 [2]	TOP blocking (%) [2]	EC50 [3]	TOP MFI [3]	IC50 [4]	TOP blocking (%) [4]
B1	14%	3.6 nM	90.4%	1.3 nM	249	35.9 nM	12.6%
B2	26.7%	4.5 nM	91.2%	2 nM	302	6.13 nM	78.3%
